The values that follow come from paper PMC7005798, “Increased circulating levels of Factor H-Related Protein 4 are strongly associated with age-related macular degeneration” (Nature Communications, 2020).

In assay [1] the target is T1, C3b (human, UniProt P01024 23-667; P01024 749-1663).
T1 construct: complement C3 beta chain, human; Two disulfide-linked chains cut from the C3 precursor; also called human C3b; complement C3b; source: bought: VWR International, catalogue no; 204860 (purified)
The experiment in a line: ELISA; solid-phase binding assay: C3b adsorbed on microtiter wells (1 ug per well); 100 nM FH or FHL-1 mixed with rising FHR-4 up to 500 nM, 4 h at room temperature in 20 mM HEPES, 130 mM NaCl, 0.05% Tween-20, pH 7.3; bound FH or FHL-1 detected with the OX23 antibody. As to conditions: both partners purified.

Assay [2] deals with T1, C3b. In words: cell-based or functional assay.

T1 sequence (P01024 23-667, chain 1 of 2): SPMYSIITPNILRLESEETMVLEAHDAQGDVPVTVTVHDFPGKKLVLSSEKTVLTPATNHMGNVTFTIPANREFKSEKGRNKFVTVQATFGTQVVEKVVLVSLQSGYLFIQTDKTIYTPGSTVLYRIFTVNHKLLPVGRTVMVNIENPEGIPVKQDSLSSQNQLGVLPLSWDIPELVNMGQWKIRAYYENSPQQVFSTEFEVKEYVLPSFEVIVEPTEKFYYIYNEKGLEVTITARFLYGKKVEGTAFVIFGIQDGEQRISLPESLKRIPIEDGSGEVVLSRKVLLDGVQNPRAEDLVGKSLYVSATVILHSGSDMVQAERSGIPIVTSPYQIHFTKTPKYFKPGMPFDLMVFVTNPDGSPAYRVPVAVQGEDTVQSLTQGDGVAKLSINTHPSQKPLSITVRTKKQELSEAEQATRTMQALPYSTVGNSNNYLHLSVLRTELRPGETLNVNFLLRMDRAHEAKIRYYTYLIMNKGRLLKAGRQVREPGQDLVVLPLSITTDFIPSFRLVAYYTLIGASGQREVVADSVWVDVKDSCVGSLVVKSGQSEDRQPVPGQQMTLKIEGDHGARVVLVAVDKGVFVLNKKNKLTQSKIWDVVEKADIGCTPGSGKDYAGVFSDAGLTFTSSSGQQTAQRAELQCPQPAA
T1 sequence (P01024 749-1663, chain 2 of 2): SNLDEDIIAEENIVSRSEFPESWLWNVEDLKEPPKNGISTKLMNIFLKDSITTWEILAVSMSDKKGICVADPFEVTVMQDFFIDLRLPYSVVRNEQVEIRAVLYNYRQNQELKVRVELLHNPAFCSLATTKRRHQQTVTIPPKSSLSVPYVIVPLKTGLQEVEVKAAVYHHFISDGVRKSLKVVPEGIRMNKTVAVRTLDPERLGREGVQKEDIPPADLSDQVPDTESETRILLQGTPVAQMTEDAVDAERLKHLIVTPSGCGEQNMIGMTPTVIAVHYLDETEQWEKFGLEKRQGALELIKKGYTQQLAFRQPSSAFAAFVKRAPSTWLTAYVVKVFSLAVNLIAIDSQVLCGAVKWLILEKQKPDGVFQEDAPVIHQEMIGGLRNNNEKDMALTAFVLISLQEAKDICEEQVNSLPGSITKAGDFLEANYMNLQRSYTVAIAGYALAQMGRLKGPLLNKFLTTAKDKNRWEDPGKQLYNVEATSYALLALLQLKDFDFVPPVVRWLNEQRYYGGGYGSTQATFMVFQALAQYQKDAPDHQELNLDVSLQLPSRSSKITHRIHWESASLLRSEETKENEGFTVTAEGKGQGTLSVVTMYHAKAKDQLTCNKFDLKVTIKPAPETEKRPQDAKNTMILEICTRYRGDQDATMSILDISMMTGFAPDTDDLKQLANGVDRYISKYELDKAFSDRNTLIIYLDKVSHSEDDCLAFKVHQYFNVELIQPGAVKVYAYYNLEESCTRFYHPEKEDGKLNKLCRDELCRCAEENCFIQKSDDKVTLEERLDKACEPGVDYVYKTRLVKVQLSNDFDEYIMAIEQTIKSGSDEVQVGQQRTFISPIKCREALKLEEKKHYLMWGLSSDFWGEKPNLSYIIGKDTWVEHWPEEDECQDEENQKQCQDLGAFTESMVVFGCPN

B1: complement factor H (FH) (natural protein, human, UniProt P08603 19-1231, looked up)
chain: EDCNELPPRRNTEILTGSWSDQTYPEGTQAIYKCRPGYRSLGNVIMVCRKGEWVALNPLRKCQKRPCGHPGDTPFGTFTLTGGNVFEYGVKAVYTCNEGYQLLGEINYRECDTDGWTNDIPICEVVKCLPVTAPENGKIVSSAMEPDREYHFGQAVRFVCNSGYKIEGDEEMHCSDDGFWSKEKPKCVEISCKSPDVINGSPISQKIIYKENERFQYKCNMGYEYSERGDAVCTESGWRPLPSCEEKSCDNPYIPNGDYSPLRIKHRTGDEITYQCRNGFYPATRGNTAKCTSTGWIPAPRCTLKPCDYPDIKHGGLYHENMRRPYFPVAVGKYYSYYCDEHFETPSGSYWDHIHCTQDGWSPAVPCLRKCYFPYLENGYNQNYGRKFVQGKSIDVACHPGYALPKAQTTVTCMENGWSPTPRCIRVKTCSKSSIDIENGFISESQYTYALKEKAKYQCKLGYVTADGETSGSITCGKDGWSAQPTCIKSCDIPVFMNARTKNDFTWFKLNDTLDYECHDGYESNTGSTTGSIVCGYNGWSDLPICYERECELPKIDVHLVPDRKKDQYKVGEVLKFSCKPGFTIVGPNSVQCYHFGLSPDLPICKEQVQSCGPPPELLNGNVKEKTKEEYGHSEVVEYYCNPRFLMKGPNKIQCVDGEWTTLPVCIVEESTCGDIPELEHGWAQLSSPPYYYGDSVEFNCSESFTMIGHRSITCIHGVWTQLPQCVAIDKLKKCKSSNLIILEEHLKNKKEFDHNSNIRYRCRGKEGWIHTVCINGRWDPEVNCSMAQIQLCPPPPQIPNSHNMTTTLNYRDGEKVSVLCQENYLIQEGEEITCKDGRWQSIPLCVEKIPCSQPPQIEHGTINSSRSSQESYAHGTKLSYTCEGGFRISEENETTCYMGKWSSPPQCEGLPCKSPPEISHGVVAHMSDSYQYGEEVTYKCFEGFGIDGPAIAKCLGEKWSHPPSCIKTDCLSLPSFENAIPMGEKKDVYKAGEQVTYTCATYYKMDGASNVTCINSRWTGRPTCRDTSCVNPPTVQNAYIVSRQMSKYPSGERVRYQCRSPYEMFGDEEVMCLNGNWTEPPQCKDSTGKCGPPPPIDNGDITSFPLSVYAPASSVEYQCQNLYQLEGNKRITCRNGQWSEPPKCLHPCVISREIMENYNIALRWTAKQKLYSRTGESVEFVCKRGYRLSSRSHTLRTTCWDGKLEYPTCAKR
notes: complement factor H, commercially available purified protein; also called CFH; source: bought: Sigma-Aldrich, catalogue no; C5813 (purified)
With B1, in the assay with C3b [1], the binding result is recorded as “binds”.

B2: Recombinant Factor H-Related Protein 4 (FHR-4), FHR-4B variant (natural protein, human, UniProt Q92496-3 20-331, looked up)
chain: EVKPCDFPEIQHGGLYYKSLRRLYFPAAAGQSYSYYCDQNFVTPSGSYWDYIHCTQDGWSPTVPCLRTCSKSDIEIENGFISESSSIYILNKEIQYKCKPGYATADGNSSGSITCLQNGWSAQPICIKFCDMPVFENSRAKSNGMRFKLHDTLDYECYDGYEISYGNTTGSIVCGEDGWSHFPTCYNSSEKCGPPPPISNGDTTSFLLKVYVPQSRVEYQCQSYYELQGSNYVTCSNGEWSEPPRCIHPCIITEENMNKNNIQLKGKSDIKYYAKTGDTIEFMCKLGYNANTSVLSFQAVCREGIVEYPRCE
As to B2, in the assay with C3b [2], the “inhibition of FHL-1/FI-mediated C3b α-chain cleavage in the fluid phase (blocks FHL-1 with C3b); FHR-4 up to a 5-fold molar excess over FHL-1, dose-dependent” value was 2.5 fold molar excess of FHR-4 over FHL-1 for 50% reduction.
